Target: interleukin-10 (IL-10) (UniProt P22301 19-178)
Experiment: luminescence quenching on Y-MOF; 1 uM protein; no obvious quenching at 514 nm; Y-MOF suspension 0.1 g/L (900 uL) mixed with 1 uM DNA (100 uL) 30 min; excitation 380 nm, IL-6 0-14.4 nM; buffer, salt, pH and temperature not stated
Conditions: protein: commercial; chain copies: 2; label: 5'-FAM; stem-loop

interleukin-10 (IL-10), sequence (P22301 19-178): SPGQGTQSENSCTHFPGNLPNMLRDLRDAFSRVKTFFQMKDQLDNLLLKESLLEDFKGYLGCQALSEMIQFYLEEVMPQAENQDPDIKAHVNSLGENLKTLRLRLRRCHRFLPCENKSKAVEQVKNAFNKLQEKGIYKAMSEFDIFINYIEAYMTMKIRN

B1: S2 (extended IL-6 aptamer) (structured_DNA)
DNA: TTTTTTTAAGCTTACCTGCCATGCCAGTACCCCCAGGAGAAGATTCCAAAGATGTGGCCGCCCCACAAAAAAAA
binding result: no binding
